# Reference: patent US20090053750A1 (CELL GENESYS, published 2009)
# Target: T1, class I MHC receptor HLA-A2 on T2 cells (human)
# T1 construct: detected on the cell surface with a mouse anti-human HLA-A2 monoclonal antibody and goat anti-mouse IgG F(ab')2-FITC; also called HLA-A2 receptor; HLA-A2 class I MHC
# Assay: T2 cells, anti-HLA-A2 flow cytometry after brefeldin A; Average; 0 hr
# Protocol: (§1) Following overnight incubation, the cells were washed and stained with mouse anti-human HLA-A2 monoclonal antibody for 15 min at 4° C.
# (§2) After washing, the cells were incubated with goat anti-mouse IgG (F(ab′)₂)-FITC (Sigma, St. Louis, Mo.) for 15 min at 4° C. The cells were washed and analyzed on a FACSort flow cytometer with CellQuest v2.1 software (Becton-Dickson, San Jose, Calif.). […] Up-regulation of HLA-A2 expression correlates with binding of HLA-A2 by the filamin-B peptides.
# (§3) To test the stability of the interaction between the peptides and HLA-A2, fluorescence was monitored for several hours following the addition of brefeldin A to the assay.
row,Binder,fluorescence index [F.I.]
1,LILGLVWTL [Filamin B peptide #1],2.82
2,GLAPLEVRV [Filamin B peptide #3],3.93

# Second part, the binder after the results:
row,fluorescence index [F.I.],Binder
1,2.32,GQGDVMVFV [Filamin B peptide #6]
2,1.79,SLQESGLKV [Filamin B peptide #4]
3,1.32,KLILGLVWT [Filamin B peptide #7]

# Target: T1, class I MHC receptor HLA-A2 on T2 cells
# Assay: T2 cells, anti-HLA-A2 flow cytometry after brefeldin A; Average; 2 hr
# Protocol: as §1, §2, §3
row,Binder,fluorescence index [F.I.]
1,LILGLVWTL [Filamin B peptide #1],2.67
2,GLAPLEVRV [Filamin B peptide #3],3.82

# The next lines start with the values.
row,fluorescence index [F.I.],Binder
1,1.67,GQGDVMVFV [Filamin B peptide #6]
2,1.4,SLQESGLKV [Filamin B peptide #4]
3,1.16,KLILGLVWT [Filamin B peptide #7]

# Target: T1, class I MHC receptor HLA-A2 on T2 cells
# Assay: T2 cells, anti-HLA-A2 flow cytometry after brefeldin A; Average; 4 hr
# Protocol: as §1, §2, §3
row,Binder,fluorescence index [F.I.]
1,LILGLVWTL [Filamin B peptide #1],2.67
2,GLAPLEVRV [Filamin B peptide #3],3.79

# Further lines, results first:
row,fluorescence index [F.I.],Binder
1,1.47,GQGDVMVFV [Filamin B peptide #6]
2,1.28,SLQESGLKV [Filamin B peptide #4]
3,1.16,KLILGLVWT [Filamin B peptide #7]

# Target: T1, class I MHC receptor HLA-A2 on T2 cells
# Assay: T2 cells, anti-HLA-A2 flow cytometry after brefeldin A; Average; 6 hr
# Protocol: as §1, §2, §3
row,Binder,fluorescence index [F.I.]
1,LILGLVWTL [Filamin B peptide #1],2.58
2,GLAPLEVRV [Filamin B peptide #3],3.61

# Now from value to binder:
row,fluorescence index [F.I.],Binder
1,1.12,GQGDVMVFV [Filamin B peptide #6]
2,1.09,SLQESGLKV [Filamin B peptide #4]
3,1.05,KLILGLVWT [Filamin B peptide #7]

# Target: T1, class I MHC receptor HLA-A2 on T2 cells
# Assay: T2 cells, anti-HLA-A2 flow cytometry after brefeldin A; Average; 8 hr
# Protocol: as §1, §2, §3
row,Binder,fluorescence index [F.I.]
1,LILGLVWTL [Filamin B peptide #1],2.4
2,GLAPLEVRV [Filamin B peptide #3],3.45

# The remaining lines, values ahead:
row,fluorescence index [F.I.],Binder
1,1.05,GQGDVMVFV [Filamin B peptide #6]
2,1.05,SLQESGLKV [Filamin B peptide #4]
3,1.05,KLILGLVWT [Filamin B peptide #7]

# Target: T1, class I MHC receptor HLA-A2 on T2 cells
# Assay: T2 cells, anti-HLA-A2 flow cytometry after brefeldin A; Assay #1; 0 hr
# Protocol: as §1, §2, §3
row,Binder,fluorescence index [F.I.]
1,LILGLVWTL [Filamin B peptide #1],3.46
2,GLAPLEVRV [Filamin B peptide #3],4.21

# The remaining lines, values ahead:
row,fluorescence index [F.I.],Binder
1,2.67,GQGDVMVFV [Filamin B peptide #6]
2,1.96,SLQESGLKV [Filamin B peptide #4]
3,1.38,KLILGLVWT [Filamin B peptide #7]

# Target: T1, class I MHC receptor HLA-A2 on T2 cells
# Assay: T2 cells, anti-HLA-A2 flow cytometry after brefeldin A; Assay #1; 2 hr
# Protocol: as §1, §2, §3
row,Binder,fluorescence index [F.I.]
1,LILGLVWTL [Filamin B peptide #1],3.17
2,GLAPLEVRV [Filamin B peptide #3],4.3

# More lines, now with the values ahead:
row,fluorescence index [F.I.],Binder
1,1.74,GQGDVMVFV [Filamin B peptide #6]
2,1.43,SLQESGLKV [Filamin B peptide #4]
3,1.24,KLILGLVWT [Filamin B peptide #7]

# Target: T1, class I MHC receptor HLA-A2 on T2 cells
# Assay: T2 cells, anti-HLA-A2 flow cytometry after brefeldin A; Assay #1; 4 hr
# Protocol: as §1, §2, §3
row,Binder,fluorescence index [F.I.]
1,LILGLVWTL [Filamin B peptide #1],3.17
2,GLAPLEVRV [Filamin B peptide #3],4.22

# The next lines start with the values.
row,fluorescence index [F.I.],Binder
1,1.65,GQGDVMVFV [Filamin B peptide #6]
2,1.43,SLQESGLKV [Filamin B peptide #4]
3,1.22,KLILGLVWT [Filamin B peptide #7]

# Target: T1, class I MHC receptor HLA-A2 on T2 cells
# Assay: T2 cells, anti-HLA-A2 flow cytometry after brefeldin A; Assay #1; 6 hr
# Protocol: as §1, §2, §3
row,Binder,fluorescence index [F.I.]
1,LILGLVWTL [Filamin B peptide #1],3.32
2,GLAPLEVRV [Filamin B peptide #3],4.27

# The remaining lines, values ahead:
row,fluorescence index [F.I.],Binder
1,1.23,GQGDVMVFV [Filamin B peptide #6]
2,1.18,SLQESGLKV [Filamin B peptide #4]
3,1.09,KLILGLVWT [Filamin B peptide #7]

# Target: T1, class I MHC receptor HLA-A2 on T2 cells
# Assay: T2 cells, anti-HLA-A2 flow cytometry after brefeldin A; Assay #1; 8 hr
# Protocol: as §1, §2, §3
row,Binder,fluorescence index [F.I.]
1,LILGLVWTL [Filamin B peptide #1],3.22
2,GLAPLEVRV [Filamin B peptide #3],4.01

# The remaining lines, values ahead:
row,fluorescence index [F.I.],Binder
1,1.09,GQGDVMVFV [Filamin B peptide #6]
2,1.09,SLQESGLKV [Filamin B peptide #4]
3,1.09,KLILGLVWT [Filamin B peptide #7]

# Target: T1, class I MHC receptor HLA-A2 on T2 cells
# Assay: T2 cells, anti-HLA-A2 flow cytometry after brefeldin A; Assay #2; 0 hr
# Protocol: as §1, §2, §3
row,Binder,fluorescence index [F.I.]
1,LILGLVWTL [Filamin B peptide #1],2.17
2,GLAPLEVRV [Filamin B peptide #3],3.64

# More lines, now with the values ahead:
row,fluorescence index [F.I.],Binder
1,1.96,GQGDVMVFV [Filamin B peptide #6]
2,1.61,SLQESGLKV [Filamin B peptide #4]
3,1.25,KLILGLVWT [Filamin B peptide #7]

# Target: T1, class I MHC receptor HLA-A2 on T2 cells
# Assay: T2 cells, anti-HLA-A2 flow cytometry after brefeldin A; Assay #2; 2 hr
# Protocol: as §1, §2, §3
row,Binder,fluorescence index [F.I.]
1,LILGLVWTL [Filamin B peptide #1],2.17
2,GLAPLEVRV [Filamin B peptide #3],3.33

# Results, then the binder that gave them:
row,fluorescence index [F.I.],Binder
1,1.6,GQGDVMVFV [Filamin B peptide #6]
2,1.37,SLQESGLKV [Filamin B peptide #4]
3,1.07,KLILGLVWT [Filamin B peptide #7]

# Target: T1, class I MHC receptor HLA-A2 on T2 cells
# Assay: T2 cells, anti-HLA-A2 flow cytometry after brefeldin A; Assay #2; 4 hr
# Protocol: as §1, §2, §3
row,Binder,fluorescence index [F.I.]
1,LILGLVWTL [Filamin B peptide #1],2.16
2,GLAPLEVRV [Filamin B peptide #3],3.35

# Continued, values first:
row,fluorescence index [F.I.],Binder
1,1.29,GQGDVMVFV [Filamin B peptide #6]
2,1.13,SLQESGLKV [Filamin B peptide #4]
3,1.1,KLILGLVWT [Filamin B peptide #7]

# Target: T1, class I MHC receptor HLA-A2 on T2 cells
# Assay: T2 cells, anti-HLA-A2 flow cytometry after brefeldin A; Assay #2; 6 hr
# Protocol: as §1, §2, §3
row,Binder,fluorescence index [F.I.]
1,LILGLVWTL [Filamin B peptide #1],1.83
2,GLAPLEVRV [Filamin B peptide #3],2.94

# Next, values leading:
row,fluorescence index [F.I.],Binder
1,1,GQGDVMVFV [Filamin B peptide #6]
2,1,SLQESGLKV [Filamin B peptide #4]
3,1,KLILGLVWT [Filamin B peptide #7]

# Target: T1, class I MHC receptor HLA-A2 on T2 cells
# Assay: T2 cells, anti-HLA-A2 flow cytometry after brefeldin A; Assay #2; 8 hr
# Protocol: as §1, §2, §3
row,Binder,fluorescence index [F.I.]
1,LILGLVWTL [Filamin B peptide #1],1.57
2,GLAPLEVRV [Filamin B peptide #3],2.89

# More lines, now with the values ahead:
row,fluorescence index [F.I.],Binder
1,1,GQGDVMVFV [Filamin B peptide #6]
2,1,SLQESGLKV [Filamin B peptide #4]
3,1,KLILGLVWT [Filamin B peptide #7]

# Target: T1, class I MHC receptor HLA-A2 on T2 cells
# Assay: T2 cells, anti-HLA-A2 flow cytometry after brefeldin A; Average; 18 hr
# Protocol: as §1, §2, §3
row,Binder,fluorescence index [F.I.]
1,LILGLVWTL [Filamin B peptide #1],1.9
2,GLAPLEVRV [Filamin B peptide #3],2.6

# Now from value to binder:
row,fluorescence index [F.I.],Binder
1,1.05,GQGDVMVFV [Filamin B peptide #6]
2,1.05,SLQESGLKV [Filamin B peptide #4]
3,1.13,KLILGLVWT [Filamin B peptide #7]

# Target: T1, class I MHC receptor HLA-A2 on T2 cells
# Assay: T2 cells pulsed with peptide + b2m, anti-HLA-A2 flow cytometry; Average
# Protocol: as §1, §2
row,Binder,fluorescence index
1,LILGLVWTL [Filamin B peptide #1],2.82
2,GLAPLEVRV [Filamin B peptide #3],3.93

# Now from value to binder:
row,fluorescence index,Binder
1,2.32,GQGDVMVFV [Filamin B peptide #6]
2,1.79,SLQESGLKV [Filamin B peptide #4]
3,1.32,KLILGLVWT [Filamin B peptide #7]

# Target: T1, class I MHC receptor HLA-A2 on T2 cells
# Assay: T2 cells, anti-HLA-A2 flow cytometry after brefeldin A; Assay #1; 18 hr
# Protocol: as §1, §2, §3
row,Binder,fluorescence index [F.I.]
1,LILGLVWTL [Filamin B peptide #1],2.45
2,GLAPLEVRV [Filamin B peptide #3],3.1

# Now from value to binder:
row,fluorescence index [F.I.],Binder
1,1.1,GQGDVMVFV [Filamin B peptide #6]
2,1.1,SLQESGLKV [Filamin B peptide #4]
3,1.25,KLILGLVWT [Filamin B peptide #7]

# Target: T1, class I MHC receptor HLA-A2 on T2 cells
# Assay: T2 cells, anti-HLA-A2 flow cytometry after brefeldin A; Assay #2; 18 hr
# Protocol: as §1, §2, §3
row,Binder,fluorescence index [F.I.]
1,LILGLVWTL [Filamin B peptide #1],1.35
2,GLAPLEVRV [Filamin B peptide #3],2.1

# Other lines, results leading:
row,fluorescence index [F.I.],Binder
1,1,GQGDVMVFV [Filamin B peptide #6]
2,1,SLQESGLKV [Filamin B peptide #4]
3,1,KLILGLVWT [Filamin B peptide #7]

# Target: T1, class I MHC receptor HLA-A2 on T2 cells
# Assay: T2 cells pulsed with peptide + b2m, anti-HLA-A2 flow cytometry; Assay #1
# Protocol: as §1, §2
row,Binder,fluorescence index
1,LILGLVWTL [Filamin B peptide #1],3.46
2,GLAPLEVRV [Filamin B peptide #3],4.21

# Other lines, results leading:
row,fluorescence index,Binder
1,2.67,GQGDVMVFV [Filamin B peptide #6]
2,1.96,SLQESGLKV [Filamin B peptide #4]
3,1.38,KLILGLVWT [Filamin B peptide #7]

# Target: T1, class I MHC receptor HLA-A2 on T2 cells
# Assay: T2 cells pulsed with peptide + b2m, anti-HLA-A2 flow cytometry; Assay #2
# Protocol: as §1, §2
row,Binder,fluorescence index
1,LILGLVWTL [Filamin B peptide #1],2.17
2,GLAPLEVRV [Filamin B peptide #3],3.64

# Now from value to binder:
row,fluorescence index,Binder
1,1.96,GQGDVMVFV [Filamin B peptide #6]
2,1.61,SLQESGLKV [Filamin B peptide #4]
3,1.25,KLILGLVWT [Filamin B peptide #7]
